For two molecules, Kd results are on record in article PMC4172209 (2014).

What is called Kd is the constant that tells how readily two partners part at equilibrium.

Where no end group is shown, it is not given here. The star is where a group is joined. FITC = O=C1OC2(c3ccc(O)cc3Oc3cc(O)ccc32)c2ccc(NC(=S)*)cc21; βAla = NCCC(=O)O

The target of assay [1] is NHERF1 PDZ1 (Homo sapiens) (UniProt O14745). The following applies: cited from earlier work.
In assay [2] the target is T1, PTH1R C-terminal peptide (FITC-PTH1Rct) (Homo sapiens).
T1 chain: {FITC-βAla}-PERPPALLQEEWETVM
The assay is described as follows: fluorescence polarization. (Fluorescence polarisation rises when a labelled molecule tumbles more slowly, as on binding a larger partner.)

Regarding “PTH1R C-terminal peptide C-terminus (from UniProt Q03431)”, the Kd in assay [1] was 11 µM.

B1: NHERF1 PDZ1 1-140 (protein)
chain: MSADAAAGAPLPRLCCLEKGPNGYGFHLHGEKGKLGQYIRLVEPGSPAEKAGLLAGDRLVEVNGENVEKETHQQVVSRIRAALNAVRLLVVDPETDEQLQKLGVQVREELLRAQEAPGQAEPPAAAEVQGAGNENEPREA
The molecule B1 yielded a Kd in assay [2] of 19 µM.
